Where a chain is given by its changes, count along the chain named.
T1: human EpCAM expressed on cells (CHO, Colo205, 293) (human, UniProt P16422 24-314)
T1 construct: whole, on cells; also called CHO cells expressing human EpCAM; Colo205 cells expressing human EpCAM
T1 sequence (looked up): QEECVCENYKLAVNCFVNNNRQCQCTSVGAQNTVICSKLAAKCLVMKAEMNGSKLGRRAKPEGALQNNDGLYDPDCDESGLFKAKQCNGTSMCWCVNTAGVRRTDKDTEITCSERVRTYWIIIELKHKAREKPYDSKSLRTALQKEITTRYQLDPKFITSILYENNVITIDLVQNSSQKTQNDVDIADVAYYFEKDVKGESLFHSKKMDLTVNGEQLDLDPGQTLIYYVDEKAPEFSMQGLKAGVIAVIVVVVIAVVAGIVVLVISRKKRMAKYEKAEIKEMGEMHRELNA

T2: recombinant human EpCAM extracellular domain (human, UniProt P16422 24-265)
T2 construct: extracellular domain; Plate-coated antigen of the ELISAs; also called human EpCAM ECD; recombinant EpCAM antigen
T2 sequence (looked up): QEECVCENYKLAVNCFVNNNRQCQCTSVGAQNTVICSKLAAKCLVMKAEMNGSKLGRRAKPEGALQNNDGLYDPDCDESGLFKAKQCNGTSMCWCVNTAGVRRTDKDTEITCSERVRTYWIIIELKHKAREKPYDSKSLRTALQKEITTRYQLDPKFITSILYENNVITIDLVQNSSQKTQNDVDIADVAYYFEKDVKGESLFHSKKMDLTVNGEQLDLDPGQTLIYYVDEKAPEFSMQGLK

B1: BA-105-01-01 7376-vcMMAE (antibody, V domains shown)
VH: QVQLQQSGAELAKPGASVKVSCKASGYTFTSYWMHWVKQRPGQGLEWIGYIRPSTGYTEYNQKFKDKATLTADKSSSTAYMQLSSLTFEDSAVYYCGRGDNWVGFANWGQGTLVTVSA
VL: QIVLTQSPAIMSASLGEEIALTCSASSSISYMHWYQQKSGTSPKLLIYSTSNLASGVPSRFSGSGSGTFYSLTISSVEAEDAADYFCHQWSTYHTFGSGTKLEIK
modifications: antibody conjugated to vcMMAE; chain and residues of attachment not stated
B2: BA-105-06-01 (antibody, V domains shown)
VH: EVQLVQSGAEVKKPGATVKISCKVSGYTFTSYWMHWIRQPPGKGLEWIGYIRPSTGYTEYNQKFKDRFTISRDNSKNTLYLQMNSLRAEDTAVYYCGRGDNWVGFANWGQGTLVTVSS
VL: EIVLTQSPDFQSVTPKEKVTITCSASSSISYMHWYQQKPGKAPKLLIYSTSKLASGVPDRFSGSGSGTDFTLKISRVEAEDVGVYYCHQWSTYETFGQGTKVEIK
notes: Humanized
B3: BA-105.4-01-02 8316-vcMMAE (antibody, V domains shown)
VH: EVQLVQSGAEVKKPGESLRISCKGSGYTFTSYWMHWIRQSPSRGLEWLGYIRPSTGYTEYNQKFKDRVTISADKSISTAYLQWSSLKASDTAMYYCGRGDNWVGFANWGQGTLVTVSS
VL: B2 VL with K52N
modifications: antibody conjugated to vcMMAE; chain and residues of attachment not stated
B4: BA-105.4-01-05 8317-vcMMAE (antibody, V domains shown)
VH: B2 VH
VL: B2 VL with K52N
modifications: antibody conjugated to vcMMAE; chain and residues of attachment not stated
B5: BA-105.4-02-01 8318-vcMMAE (antibody, V domains shown)
VH: B2 VH with I37V, P40A, K43Q, I48M
VL: EIVMTQSPATLSVSPGERATLSCSASSSISYMHWYQQKPGKAPKLLIYSTSNLASGVPSRFSGSGSGTEFTLTISSLQPDDFATYYCHQWSTYETFGQGTKVEIK
modifications: antibody conjugated to vcMMAE; chain and residues of attachment not stated
B6: BA-105-06-02 (antibody, V domains shown)
VH: B2 VH
VL: B2 VL with K52S
notes: Humanized

Assays:
[1] = biological target: T3, cyno EpCAM (recombinant, ELISA antigen) (cynomolgus monkey); assay: ELISA of MMAE conjugates, cyno EpCAM, pH 7.4
T3 construct: extracellular domain; also called cynomolgus EpCAM extracellular domain
Method: (§1) A similar ELISA analysis was also carried out using cyno EpCAM to measure the binding affinities of the conjugated humanized conditionally active anti-EpCAM antibodies. […] The EC50 values for binding to the cyno EpCAM by the conjugated humanized conditionally active anti-EpCAM antibodies are summarized in Table 13.
(§2) The ELISA assay was performed using the following protocol: [0388] 1) Coat ELISA plates with 100 μL of 0.5 μg/mL (06_20_17 and 06_28_17 Experiments) or 1 μg/mL (07_06_17 and 07_11_17 Experiments) recombinant EpCAM antigen in carbonate-bicarbonate coating buffer [0389] 2) Cover plates with sealing film and incubate overnight at 4° C. [0390] 3) Decant plates and tap out residual liquid on a stack of paper towels [0391] […] 5) Add 200 μL of various pH incubation buffers to the wells according to the sample map.
Target sequence in this assay (Q1WER1 24-265): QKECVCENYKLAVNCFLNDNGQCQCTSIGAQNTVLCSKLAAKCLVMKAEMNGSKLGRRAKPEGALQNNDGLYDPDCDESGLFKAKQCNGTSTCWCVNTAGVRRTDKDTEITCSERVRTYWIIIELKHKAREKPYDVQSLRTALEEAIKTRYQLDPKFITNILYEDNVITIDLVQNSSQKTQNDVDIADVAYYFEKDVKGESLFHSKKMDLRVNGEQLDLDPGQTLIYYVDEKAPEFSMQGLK

[2] = biological target: T1, human EpCAM expressed on cells (CHO, …); assay: FACS of MMAE conjugates on 293 cells expressing human EpCAM, pH 7.4
Method: (§3) A similar FACS analysis was also carried out using 293 cells expressing human EpCAM. […] The EC50 values for binding to the 293 cells expressing human EpCAM by the conjugated humanized conditionally active anti-EpCAM antibodies are summarized in Table 17.

[3] = biological target: T1, human EpCAM expressed on cells (CHO, …); assay: cell-based or functional assay
[4] = biological target: T3, cyno EpCAM (recombinant, ELISA antigen); assay: ELISA of MMAE conjugates, cyno EpCAM, pH 6.0
Method: as §1, §2
Target sequence in this assay (Q1WER1 24-265): as above

[5] = biological target: T3, cyno EpCAM (recombinant, ELISA antigen); assay: ELISA with pH titration, cyno EpCAM
Method: (§4) Binding activities of the conjugated humanized conditionally active anti-EpCAM antibodies to cyno EpCAM were also measured by ELISA with pH titration. […] The ratios of binding activities at pH 6.0 and pH 7.4 to the cyno EpCAM by the conjugated humanized conditionally active anti-EpCAM antibodies, as well as their pH inflection points are summarized in Table 15.
as §2
Target sequence in this assay (Q1WER1 24-265): as above

[6] = biological target: T2, recombinant human EpCAM extracellular …; assay: ELISA with pH titration, human EpCAM
Method: (§5) Binding activities of conjugated humanized conditionally active anti-EpCAM antibodies to human EpCAM were measured by ELISA with pH titration. […] The ratios of binding activities to human EpCAM of the conjugated humanized conditionally active anti-EpCAM antibodies at pH 6.0 and pH 7.4, as well as their pH inflection points are summarized in Table 14.
as §2

[7] = biological target: T1, human EpCAM expressed on cells (CHO, …); assay: FACS of MMAE conjugates on Colo205 cells expressing human EpCAM, pH 7.4
Method: (§6) Binding activities of the conjugated humanized conditionally active anti-EpCAM antibodies (with MMAE) to Colo205 cells expressing human EpCAM was measured by FACS at two different pH: 6.0 and 7.4. […] The EC50 values for binding to the Colo205 cells expressing human EpCAM by the conjugated humanized conditionally active anti-EpCAM antibodies are summarized in Table 16.

[8] = biological target: T2, recombinant human EpCAM extracellular …; assay: ELISA of MMAE conjugates, human EpCAM, pH 6.0
Method: (§7) The humanized conditionally active anti-EpCAM antibodies were conjugated to MMAE to create antibody drug conjugates. Binding activities of the conjugated humanized conditionally active anti-EpCAM antibodies to human EpCAM were measured by ELISA at pH 6.0 and pH 7.4 at different antibody concentrations. […] The EC50 values for binding to the human EpCAM by the conjugated humanized conditionally active anti-EpCAM antibodies are summarized in Table 12.
as §2

[9] = biological target: T4, cyno EpCAM expressed on 293 cells (cynomolgus monkey); assay: FACS of MMAE conjugates on 293 cells expressing cyno EpCAM, pH 6.0
T4 construct: whole, on cells; also called 293 cells expressing cyno EpCAM
T4 sequence (Q1WER1 24-314): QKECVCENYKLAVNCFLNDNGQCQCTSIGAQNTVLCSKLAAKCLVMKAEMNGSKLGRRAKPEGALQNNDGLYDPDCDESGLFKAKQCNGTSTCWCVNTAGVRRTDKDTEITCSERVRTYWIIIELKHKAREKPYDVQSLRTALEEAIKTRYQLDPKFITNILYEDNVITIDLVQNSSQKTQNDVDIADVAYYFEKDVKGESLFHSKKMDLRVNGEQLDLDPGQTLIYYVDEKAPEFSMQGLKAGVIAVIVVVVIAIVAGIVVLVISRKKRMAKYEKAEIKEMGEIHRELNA
Method: (§8) A similar FACS analysis was also carried out using 293 cells expressing cyno EpCAM. […] The EC50 values for binding to the 293 cells expressing cyno EpCAM by the conjugated humanized conditionally active anti-EpCAM antibodies are summarized in Table 18.

[10] = biological target: T4, cyno EpCAM expressed on 293 cells; assay: FACS of MMAE conjugates on 293 cells expressing cyno EpCAM, pH 7.4
Method: as §8

[11] = biological target: T1, human EpCAM expressed on cells (CHO, …); assay: FACS of MMAE conjugates on Colo205 cells expressing human EpCAM, pH 6.0
Method: as §6

[12] = biological target: T3, cyno EpCAM (recombinant, ELISA antigen); assay: ELISA with pH titration, cyno EpCAM; ratio of binding activities at pH 6.0 and pH 7.4
Method: as §4, §2
Target sequence in this assay (Q1WER1 24-265): as the sequence (Q1WER1 24-265) above

[13] = biological target: T1, human EpCAM expressed on cells (CHO, …); assay: FACS of MMAE conjugates on 293 cells expressing human EpCAM, pH 6.0
Method: as §3

[14] = biological target: T2, recombinant human EpCAM extracellular …; assay: ELISA of MMAE conjugates, human EpCAM, pH 7.4
Method: as §7, §2

[15] = biological target: T3, cyno EpCAM (recombinant, ELISA antigen); assay: direct binding ELISA, cyno EpCAM, pH 6.0 (printed as IC50)
[16] = biological target: T2, recombinant human EpCAM extracellular …; assay: direct binding ELISA, human EpCAM, pH 6.0 (table prints IC50, the text paragraph 376 says EC50)
[17] = biological target: T3, cyno EpCAM (recombinant, ELISA antigen); assay: direct binding ELISA, cyno EpCAM; ratio of the printed IC50 at pH 7.4 to pH 6.0
[18] = biological target: T2, recombinant human EpCAM extracellular …; assay: direct binding ELISA, human EpCAM; ratio of the printed IC50 at pH 7.4 to pH 6.0
[19] = biological target: T2, recombinant human EpCAM extracellular …; assay: direct binding ELISA, human EpCAM, pH 7.4 (table prints IC50, the text paragraph 376 says EC50)
[20] = biological target: T3, cyno EpCAM (recombinant, ELISA antigen); assay: direct binding ELISA, cyno EpCAM, pH 7.4 (printed as IC50)
[21] = biological target: T2, recombinant human EpCAM extracellular …; assay: ELISA with pH titration, human EpCAM; ratio of binding activities at pH 6.0 and pH 7.4
Method: as §5, §2

Binder	EC50 [1]	EC50 [2]	EC50 [4]	pH inflection point [5]	pH inflection point [6]	EC50 [7]	EC50 [8]	EC50 [9]	EC50 [10]	EC50 [11]	ratio (pH 6.0/7.4) [12]	EC50 [13]	EC50 [14]	IC50 [15]	IC50 [16]	ratio (pH7.4/pH6.0) [17]	ratio (pH7.4/pH6.0) [18]	IC50 [19]	IC50 [20]	ratio (pH 6.0/7.4) [21]	further results
B1	0.0234 µg/mL	0.112 µg/mL	0.0311 µg/mL	5.07 pH	6.71 pH	0.375 µg/mL	0.024 µg/mL	1.36 µg/mL	1.74 µg/mL	0.301 µg/mL	0.93	0.129 µg/mL	0.0147 µg/mL	–	–	–	–	–	–	–	IC50 for the in vitro killing of Colo205 cells, pH6.0 [3]: 12.9 ng/mL; IC50 for the in vitro killing of Colo205 cells, pH7.4 [3]: 16.8 ng/mL; ratio (pH7.4/pH6.0) of the IC50 for the in vitro killing of Colo205 cells [3]: 1.3
B2	–	–	–	–	–	–	–	–	–	–	–	–	–	0.00371 µg/mL	0.0299 µg/mL	17.1	5.6	0.168 µg/mL	0.0635 µg/mL	–	–
B3	0.257 µg/mL	0.0849 µg/mL	0.0877 µg/mL	6.3 pH	–	0.153 µg/mL	0.0392 µg/mL	4.72 µg/mL	17.7 µg/mL	0.15 µg/mL	2.75	0.0637 µg/mL	0.127 µg/mL	–	–	–	–	–	–	1.75	–
B4	0.3 µg/mL	0.109 µg/mL	0.0659 µg/mL	6.28 pH	6.98 pH	0.203 µg/mL	0.0306 µg/mL	5.54 µg/mL	43.4 µg/mL	0.188 µg/mL	2.76	0.0772 µg/mL	0.0703 µg/mL	–	–	–	–	–	–	2.39	–
B5	0.249 µg/mL	0.335 µg/mL	0.0809 µg/mL	6.16 pH	6.83 pH	0.693 µg/mL	0.0324 µg/mL	7.96 µg/mL	61.1 µg/mL	0.464 µg/mL	3.61	0.206 µg/mL	0.22 µg/mL	–	–	–	–	–	–	6.74	–
B6	–	–	–	–	–	–	–	–	–	–	–	–	–	0.152 µg/mL	0.105 µg/mL	4.44	2.5	0.262 µg/mL	0.673 µg/mL	–	–

Reference: patent US20260053904A1 (BIOATLA, published 2026)
